Assay results reported in publication PMC10681739, “High-throughput data and modeling reveal insights into the mechanisms of cooperative DNA-binding by transcription factor proteins”.

T1: ETS1 x2 (Homo sapiens, UniProt P14921)
T1 sequence: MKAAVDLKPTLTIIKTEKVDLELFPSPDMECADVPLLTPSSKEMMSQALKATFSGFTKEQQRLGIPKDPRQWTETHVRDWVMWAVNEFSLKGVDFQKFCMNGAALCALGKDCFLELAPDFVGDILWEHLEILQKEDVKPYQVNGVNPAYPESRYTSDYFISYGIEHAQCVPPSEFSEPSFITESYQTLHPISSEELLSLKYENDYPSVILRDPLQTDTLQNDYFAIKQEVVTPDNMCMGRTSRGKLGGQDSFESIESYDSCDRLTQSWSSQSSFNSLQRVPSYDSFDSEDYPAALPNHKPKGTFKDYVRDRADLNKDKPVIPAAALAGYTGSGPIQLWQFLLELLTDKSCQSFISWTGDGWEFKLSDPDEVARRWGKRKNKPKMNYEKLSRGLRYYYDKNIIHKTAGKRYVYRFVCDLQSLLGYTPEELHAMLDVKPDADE


Target: T1, ETS1 x2
Experiment: gcPBM; 10 nM ETS1
Settings: tags: N-terminal GST (pDEST15), kept (PMC6008103); chain copies: 2; label: surface-attached array probe

| Binder | binding signal |
| --- | --- |
| Table S4 A row 2542 (dsDNA) DNA 1: GGGAAACTCCACAGGAAACGGAAATGGTCTCTCCCA DNA 2: TGGGAGAGACCATTTCCGTTTCCTGTGGAGTTTCCC | 4020 PBM fluorescence, median of replicate spots |
| Table S4 A row 2434 (dsDNA) DNA 1: AGCAACAACGTCACTTCCCTTCCGGACCACAAGGGG DNA 2: CCCCTTGTGGTCCGGAAGGGAAGTGACGTTGTTGCT | 3480 PBM fluorescence, median of replicate spots |
| Table S4 A row 1500 (dsDNA) DNA 1: CTCGTCGCCAGGGGAAGTGCTTCCTGCTGACAGGTC DNA 2: GACCTGTCAGCAGGAAGCACTTCCCCTGGCGACGAG | 4140 PBM fluorescence, median of replicate spots |
| Table S4 A row 1015 (dsDNA) DNA 1: AGAAGCCACCACAGGAAACGGAAGAAGCCACCTCTG DNA 2: CAGAGGTGGCTTCTTCCGTTTCCTGTGGTGGCTTCT | 3380 PBM fluorescence, median of replicate spots |
| Table S4 A row 1324 (dsDNA) DNA 1: TTGAATGGACCTCATCCTGCTTCCTGCTCTTTGCAG DNA 2: CTGCAAAGAGCAGGAAGCAGGATGAGGTCCATTCAA | 3130 PBM fluorescence, median of replicate spots |
| Table S4 A row 2304 (dsDNA) DNA 1: GCGGCCTGACGGGAAACGTAGTTTCCGGGGCCAAGA DNA 2: TCTTGGCCCCGGAAACTACGTTTCCCGTCAGGCCGC | 4630 PBM fluorescence, median of replicate spots |
| Table S4 A row 126 (dsDNA) DNA 1: CACTGCACACTTCCTAGCAGGCTTCCTGTGTAGCTG DNA 2: CAGCTACACAGGAAGCCTGCTAGGAAGTGTGCAGTG | 4970 PBM fluorescence, median of replicate spots |
| Table S4 A row 700 (dsDNA) DNA 1: TGGGTGACACTCCTTCCGCCTTCCGTGACCCCCATC DNA 2: GATGGGGGTCACGGAAGGCGGAAGGAGTGTCACCCA | 2820 PBM fluorescence, median of replicate spots |
| Table S4 A row 376 (dsDNA) DNA 1: CGTGACACTTCTTTTCCTGTTTCCTGGGTCTCACCA DNA 2: TGGTGAGACCCAGGAAACAGGAAAAGAAGTGTCACG | 4760 PBM fluorescence, median of replicate spots |
| Table S4 A row 382 (dsDNA) DNA 1: AGGAGGGAGGGAGCTTCCTTCCTGTTCTCTGAAGGC DNA 2: GCCTTCAGAGAACAGGAAGGAAGCTCCCTCCCTCCT | 3590 PBM fluorescence, median of replicate spots |
| Table S4 A row 1550 (dsDNA) DNA 1: AAGTTGGGCCTGACTTCCTTCCTGTGGGGTTGCAGC DNA 2: GCTGCAACCCCACAGGAAGGAAGTCAGGCCCAACTT | 5110 PBM fluorescence, median of replicate spots |
| Table S4 A row 2151 (dsDNA) DNA 1: AGGGCTCAGAGGCGGAAGCGGAAGCACATTCTGTCA DNA 2: TGACAGAATGTGCTTCCGCTTCCGCCTCTGAGCCCT | 3300 PBM fluorescence, median of replicate spots |
| Table S4 A row 1712 (dsDNA) DNA 1: CACGAGTCCAGGAAACAAGTGCTTCCTGCCTATGGG DNA 2: CCCATAGGCAGGAAGCACTTGTTTCCTGGACTCGTG | 3840 PBM fluorescence, median of replicate spots |
| Table S4 A row 2527 (dsDNA) DNA 1: GCCTGAAGCCGGAAGACTATAGCTTCCCGGCATGCA DNA 2: TGCATGCCGGGAAGCTATAGTCTTCCGGCTTCAGGC | 3700 PBM fluorescence, median of replicate spots |
| Table S4 A row 2556 (dsDNA) DNA 1: CGCGCCGGACCGGAAAGCCGGGGAAGTGGCCGAGGA DNA 2: TCCTCGGCCACTTCCCCGGCTTTCCGGTCCGGCGCG | 3050 PBM fluorescence, median of replicate spots |
| Table S4 A row 2212 (dsDNA) DNA 1: CTGGGCCAGGCGGAAGCTCTGCTTCCGCATGCTGGG DNA 2: CCCAGCATGCGGAAGCAGAGCTTCCGCCTGGCCCAG | 4240 PBM fluorescence, median of replicate spots |
| Table S4 A row 677 (dsDNA) DNA 1: ACAGCCCCGCCCGCTTCCTTCCTGCCTTCTCCACGT DNA 2: ACGTGGAGAAGGCAGGAAGGAAGCGGGCGGGGCTGT | 3660 PBM fluorescence, median of replicate spots |
| Table S4 A row 1258 (dsDNA) DNA 1: CCATCAGCAAACATCCCACCGGATGTTTTCTTAAGC DNA 2: GCTTAAGAAAACATCCGGTGGGATGTTTGCTGATGG | 5080 PBM fluorescence, median of replicate spots |
